This note sets out measurements from patent US20200255494A1.

This test deals with anti-HA1H TCR expressed on SupT1 cells. The experiment in a line: cell-based or functional assay.

On to “MHC I CAR with β2m-41BBz: HLA-A02 / β2m-41BBz chimeric construct loaded with recombinant HA1H peptide, on transduced PBMC CAR-T cells (from UniProt P61769 21-119; P20963 31-51; Q07011 214-255; P20963 52-163) (peptide-MHC)”, for which the EC50 for HA1H peptide (pulsing concentration) in killing of SupT1 anti-HA1H TCR target cells, 48 h co-culture, 2:1 effector to target, flow cytometry came out at 0.1 µM. For “MHC I CAR with β2m-CD3z: HLA-A02 / β2m-CD3z chimeric construct loaded with recombinant HA1H peptide, on transduced PBMC CAR-T cells (from UniProt P61769 21-119; P20963 31-51; P20963 52-163) (peptide-MHC)”, the EC50 for HA1H peptide (pulsing concentration) in killing of SupT1 anti-HA1H TCR target cells, 48 h co-culture, 2:1 effector to target, flow cytometry amounted to 0.5 µM.
